# Source: the DeepSol protein solubility set
# Experiment: soluble on expression in E. coli; label from the status in PepcDB or PDB records
row,Sequence,soluble on expression in E. coli
1,MAAQLSEIEVKGVKIPLIYEKSTLMPAVNLQIVFTHAGSITDEIPGLASLSARIFNEGTKTLGSVEFAKELENRAISLSVGSGNETLVFDMSALKSEYLEGLRLTRELLRQPNFTKEALSKVKTDIKASLLRKESDFDYVAQVELHRRLFEGTPLEYPSMGNRESIEKITLKEVEEFWKKRGVLRRAIVLVGGDVELEEVKKDLLSLLSVLPLGEEGELVRYEAKGDLEVKSVIKNTQQAYIYFGSPFSVKNLREDSYKAKVAAFVLGSSGFGSRMMEEIRVKRGLAYSAYWRISLSKSVNYSLGYLQTKLENEQQAIGVVRELIEEFLQKGITEKELEGAKQFLLGSEPLRNETLSQRLSSAFSAYYRGLPLDFAKEELHKIEALTLEEINAYIKEHQELLQLSFSVVTAPKE,not soluble
2,MIRVLLADDHALFRQGLKSLLEAEGDFRVVGEAKDGWEAMRHALETKPDVILMDIQMPGLDGVQATQAILKEWPQAKVIMLTMYRQDAYVFEAVKAGARGYLLKDVDARELVDAIRRVHAGEVLLDAELAGHIIQDFRAKKEASQPLHAELSEREVQILRLVAQGYTNQEIAAELQLSEKTVRNRLSEIFQKLHLNNRTQAALYAIREGLARPEE,soluble
3,MSHHHHHHSQGGPQDHVEIIPLGGMGEIGKNITVFRFRDEIFVLDGGLAFPEEGMPGVDLLIPRVDYLIEHRHKIKAWVLTHGHEDHIGGLPFLLPMIFGKESPVPIYGARLTLGLLRGKLEEFGLRPGAFNLKEISPDDRIQVGRYFTLDLFRMTHSIPDNSGVVIRTPIGTIVHTGDFKLDPTPIDGKVSHLAKVAQAGAEGVLLLIADATNAERPGYTPSEMEIAKELDRVIGRAPGRVFVTTFASHIHRIQSVIWAAEKYGRKVAMEGRSMLKFSRIALELGYLKVKDRLYTLEEVKDLPDHQVLILATGSQGQPMSVLHRLAFEGHAKMAIKPGDTVILSSSPIPGNEEAVNRVINRLYALGAYVLYPPTYKVHASGHASQEELKLILNLTTPRFFLPWHGEVRHQMNFKWLAESMSRPPEKTLIGENGAVYRLTRETFEKVGEVPHGVLYVDGLGVGDITEEILADRRHMAEEGLVVITALAGEDPVVEVVSRGFVKAGERLLGEVRRMALEALKNGVREKKPLERIRDDIYYPVKKFLKKATGRDPMILPVVIEG,soluble
4,MGSDKIHHHHHHMTPTLPDRKQNPPSAPAATVSLRLLEIFMLVAQEGSVSAAANRLNLTQAAVSQAITVLEQALDVKLLDRSVRPPLLTLRGSTALQYAREILAKVHEFEDAMRYSGSGRVPLLRIGMLNSFASTAGAFVLNQLRDIAAEWTVASGFRETCIQALLDRQSDVIITTDETPAPSEIEVFPIFSEPFVAVVPASFDGKTERLQDIADKLDFIHYGHDSHMGSKITNYLKKIGTVPARRYQFDTTDAALHMVAGGFGWAIVTPLIYLKSRVEGSGVRVVPLTRLPIHRTFIVGMRRGEGSDIAQRVRTAAIITLRDVILPQIEAVLPEASKGVSVAEIEPKASTGKRKGSRRDSAGS,not soluble
5,MDLFPDEVYVFTPKGHIMELPKGATPVDFAYTVHSGVGNSCVAAKVNRRLVPLSIPLSNGQTVEIITAPGAHPNPAWLEHHHHHH,not soluble
6,EKVIIEKAAGDAEAIAFDGRTYMEYHNAVTKSPDALDYPAEPSEKALQSNHFELSIKTEATQGLILWSGKGLERSDYIALAIVDGFVQMMYDLGSKPVVLRSTVPINTNHWTHIKAYRVQREGSLQVGNEAPITGSSPLGATQLDTDGALWLGGMERLSVAHKLPKAYSTGFIGCIRDVIVDRQELHLVEDALNNPTILHCSAK,soluble
7,MGSDKIHHHHHHMKRLSPEVFKVPIDRIRNGYYSDIYFINYVKVLKRDSRHPRVYYQFFPRKDAVICGIDEALAILKFCTGYYKDEEKARELFEEILKLDKEMQAASVEMDVQKILELTQKKWDLRLKLNDLWVDKWDEIEVHALYDGEEAKEGEPIMTIEGDPTYFGYLETVLLGVIARATSTATAVKKVVKAARGKPVLFFSARFDHYWVQATDGYAALKAGAFGVSTDANADYWGVKSMGTMPHALIACYDGKTEDAAIAFDRHMEEDVNRIVLVDWDNDVIGTTFRVIEKFYEYVMKKPFKLGVTDPSPIIGPGKNKIWGVRFDTSGNLRDKSVVPKDESSFGVCPELVWRARQEFDKVGLRDLKIVVSGGFDEKKIDLFERLGVPADAYGVGSRLLREKVDITADIVEVNGRHCAKVGRYKIENPRLKKVGKRYWEEE,not soluble
8,MQMNTQREQLIHIWLTSVLNSDEFKIQFLAGDASFRRYARVEYKNNTYMLMDAPPEKEDCVPFVHIDEFFDRHGVRVPHILAKDLVQGFLLLEDFGDVLLSTLLNAQTVNHYYLQAFAQLIHLQSIDGQDQFPAYTFEKLMAEMHLLTEWMLPSLDIQPSSAEQDIIQQTFELLANTALNQPQVIVHRDFHSRNLMKIQGEEELGVIDFQDAVIGADTYDLISITRDAYVQWGEDQVITWFEMFYDLLPDTSKHHRDFEQFKRDADFMAIQRHIKILGIFVRLFERDGKSSYLKDLPRVMWYLLQESRPYAELKPFVEFIQYQVMPKFEQKYGGYEVVKK,not soluble
9,MGSDKIHHHHHHMVHSTPTTFAGSKSARPRVAIAGFQHETNTFAPFGAPFDDFVRGGGWPAMTTGAAILDVFPPIEIPIGGFISAAKDTYELIPLVWAAAEPTSFVSDDAFERIAGMICDGIARAGPLDAIYLDLHGAMVVESYQDGEGELLRRVREIVGRDIPIMISLDFHANVTEAMVELSDGITIFRTYPHIDLADTGGRAFSLLEQRIRRGRPFIKAFRKTPFLIPLPAQCTDLEPCMSLYAGLQERVKGPVLNVDVALGFPLADIRECGPAVVAYGIDEVAVTAAADMQLSDMLEAEGRFHMSLLDVKEAVEHAARNGRKGSLIVLADVQDNPGCGGTSDTIGLLKGMVEGGLRNGVLGLLWDPETAEAAHTAGLGAELDVRLGGRYGYDSEPYLARVRVEALSDGVFKANGPCLGGVQVDLGRMARLLILNPGSSVQVVVSSVRFQCLDQDLLRAVGVEPRDQSVVAVKSAVHFRADFAPIAEEILTVESPGAHWCRNDILDYKNLRDGVRRMPISLATQPSEVKIAERRH,not soluble
10,MRAADAPDAPLPEDRRNAPVWFAHDLEAPRCTALFPRLADRRPALVVVGGFLGSGKTTFLNNCIEYHRARERFVAVIQNEVGATGVDARLMGDGAEVLALDEGCVCCSLAGSLAGGIRAITADFTPEVILLETTGLANPLNLLAELDTLRDMVRLDAVVTVVDAANIVPTLRDSDIARDQIRGADIIVCNKCDTVDETGRAALRATLTGLNGRAALHETSFGRIHPSLFMALEGERPPRGLMPAPHGTHATHADEGFAAVRLFFSGTIDEAALAPLLQQCPGAPFRIKGIVRVTDDEAPRLVQCVGARCEVERLDGGFEGTPFLVFIGRNPDETALLEHWAALGATAEPPAPQAEADTQPAQATKSASGGQSSDATRGCHDHHLEHHHHHH,not soluble
11,MGSSHHHHHHSSGLVPRGSHMKKRIGIVGAGTAGLHLGLFLRQHDVDVTVYTDRKPDEYSGLRLLNTVAHNAVTVQREVALDVNEWPSEEFGYFGHYYYVGGPQPMRFYGDLKAPSRAVDYRLYQPMLMRALEARGGKFCYDAVSAEDLEGLSEQYDLLVVCTGKYALGKVFEKQSENSPFEKPQRALCVGLFKGIKEAPIRAVTMSFSPGHGELIEIPTLSFNGMSTALVLENHIGSDLEVLAHTKYDDDPRAFLDLMLEKLGKHHPSVAERIDPAEFDLANSSLDILQGGVVPAFRDGHATLNNGKTIIGLGDIQATVDPVLGQGANMASYAAWILGEEILAHSVYDLRFSEHLERRRQDRVLCATRWTNFTLSALSALPPEFLAFLQILSQSREMADEFTDNFNYPERQWDRFSSPERIGQWCSQFA,soluble
12,MSLNHPSSTPVPPLDATPARALGEFIRAHRERLSPQAVGLPPGPRRRTPGLRREEVAQLCGVSPTWYTWIEQGRPVSASADALARIAVALQLSKAERAYLFELAAQRDPAEPDVAGGDLPPTLAATVAAIATPAYVMDRQWNALAWNTPAAALFSGWLDGEHDRNLLRFTFMSPAARTLIVDWETRARRMAAEFRADSIRHLTDAPTRALIDALTAGSDAFAQYWASQDVFEREGGLREFDHPADGRMVYQQITLKPAHREDLKLVVLVRDEGHHHHHH,soluble
13,ENILAGRAKAEKMRLSAERNRNQMEIYRSLQQGDECRKRQIHDYKNQLNCIRGLVDDNRTKEALRYIGQLTGSLNESIHQINTGHPVVNVLLNQKYQSAREQQISMTMTMNNLSELSLSEEDIVTLLANLLDNAIEACLKLHGDRRIQLKMVLEEEELFLSIRNPVEWEVKISGKTAAAAKEKSGEHGLGLGNVDAVIRKNRGRSTLQCQEGWFCFTAVILQPQR,not soluble
14,MKRLADVKISTLDLVPVRHDKGPADSLRNSLNLAQHVEKLGYNRFWVAEHHNMDGIASSATSVLLAYLAGGTSTIRVGAGGIMLPNHAPLVVAEQFGTLASLYPGRIDLGLGRAPGSDQMTARALRRERSGSAEDFPDDVTELMEYLGPRTPDQKVIAVPGSDTNVPIWLLGSSLFSAQLAGMRGLPYAFASHFAPRYMHEAIRVYRNHFQPSAVLDKPYVMLGVPLSAADTDEHAEYLATSVYQRILALMRGHSLMQRPPVESMDGLWLPHEREAVASFLGLAMVGGPDKIRAKLDVLLEQTDADELIFTCDMYEHEDRLRSYEILAQVAQG,not soluble
15,MGSDKIHHHHHHMAMAHGRRRVFGSVEHRKIDMSFRPLFGSGRIRTAGEQPAQPTTASWPGSSVVFDRRRWTCREAELRWTAPHHVLVLTEEGATSQTSIRSDGKMVYEGRDRSGAITFVPAGVERLGAYRDVDLTYSALWIDPRSISPASEHLKDLPVLINKSDTVISALLKSLSSEISNGHIPDSAYVDHLIALVTLRIRGFADEPVPAPRHDSLGSRVVKRVRDYVDAHLDGDISLGDLADVAGVASDSFARRFKVTTGFAPYAYVLEERIRRSEALLCETDTTLSAIALACGFSSQSHFTTTFKRLRGVTPQAYRSKVIPES,not soluble
16,MSLASLCDLVGLPRSSFYRQSVFKVLEDQECETELRHQMQLICLEMPGYSYRRITAELHRRGWPVNHKRVLRLMRQDNLLCLRRKAFVRTTDSEHGFRVYPNLATNLMPSGLNQLWISDITYIRLQEEFVYLAIILDRYSRRVIGWSLSRHIDMELSLSALRMALSNREVLPGLIHHSDRGVQYASKAYIELLEEHKIAISMSRRGNPYDNAFAESFMKTLKYEEVLLNEYGDYREAQGNIARFIEEVYNRKRLHSSIGYLPPVEFEARVEHEISPASHPTEGHHHHHH,soluble
17,MKVLIGGYTKKTSKGIYELPFIGEDNEAHLEKAENIISVGGPTYFQKDGDLVFTINNAGDEGGISAFKLSDHGSNEIDRHLTPGASPAYIGINKEKKLLYTANYHTAVLSVFQYSNSGKLALVAQTTHKAESLGPRPEQVDGPHPHFFDETPAGNLVSCDLGNDTVDFYRLENNELKHLAQYKNEAGFGDRHIVFSKDGNYFYVVGELSSQINVVKFNENTWEFEDIATYKTIPEDFTEHNGAAALYITNDGKYIYNSNRGHNSITVFKVNDDHTLSLIQRISTFGDFPRDFNWDETQKYVVAANQNTDNATLYLRNGGNGTLTPIQTEIPVPEGTRVLFTKLEHHHHHH,not soluble
18,MGSDKIHHHHHHMITISHITAKNMYKSLEERINKFPQGAPPSDTLYKILNVLYTEQEAKLVAQLPIKPFRVKTAAKIWSVSESEAYRVLDKLASKALILDIEDNKGKKYIMPPPMAGFFEFAMMRTRHDIDQKLLAELYYQYMNVEEDFIKDLFYSTETKLGRVYVQEEVLTNDNEVSILDYERATHIIDESTHIGISMCYCRHRMQHVGKACDAPMDICMTFDNVANSLINNKFARRVDKIECKELLHQAYEHNLVQCGENVRKGVTFICNCCGCCCEAMVAAKRFGNLHPVQTTSFIPNINHENCVKCGKCITACPIDAISKVKEDGKEYIKIDEDRCLGCGVCVRNCHKNSIMLLKRDEKIITPANSVHRAVLMAIEKGQLQNLIFDNNALASHRAMGAILSAILKLEPAKKILASKQLKSVYLDKLLSMNDK,not soluble
